From patent publication US20260116963A1 (GENERATE BIOMEDICINES, published 2026)
Substitutions are numbered along the chain they refer to.

T1: mouse IL-13 (mouse, UniProt P20109 19-131, limits assumed)
T1 construct: also called recombinant mouse IL-13
T1 sequence (looked up): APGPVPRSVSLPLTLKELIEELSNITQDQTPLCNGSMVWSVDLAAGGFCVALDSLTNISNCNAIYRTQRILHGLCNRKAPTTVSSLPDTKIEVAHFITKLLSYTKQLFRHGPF

B1: AbG (antibody, human IgG1, kappa)
heavy: QVTLRESGPALVKPTQTLTLTCTVSGASLSAYSVNWIRQPPGKALEWLAMIWGDGKIVYNSALKSRLTISKDTSKNQVVLTMTNMDPVDTATYYCAGDGYFPYAMDNWGQGSLVTVSSASTKGPSVFPLAPSSKSTSGGTAALGCLVKDYFPEPVTVSWNSGALTSGVHTFPAVLQSSGLYSLSSVVTVPSSSLGTQTYICNVNHKPSNTKVDKRVEPKSCDKTHTCPPCPAPELLGGPSVFLFPPKPKDTLYITREPEVTCVVVDVSHEDPEVKFNWYVDGVEVHNAKTKPREEQYNSTYRVVSVLTVLHQDWLNGKEYKCKVSNKALPAPIEKTISKAKGQPREPQVYTLPPSREEMTKNQVSLTCLVKGFYPSDIAVEWESNGQPENNYKTTPPVLDSDGSFFLYSKLTVDKSRWQQGNVFSCSVMHEALHNHYTQKSLSLSPGK
light: DIVMTQSPDSLSVSLGERATINCRASKSVDSYGNSYMHWYQQKPGQPPKLLIYLASNLESGVPDRFSGSGSGTDFTLTISSLQAEDVAVYYCQQNNEDPRTFGGGTKVEIKRTVAAPSVFIFPPSDEQLKSGTASVVCLLNNFYPREAKVQWKVDNALQSGNSQESVTEQDSKDSTYSLSSTLTLSKADYEKHKVYACEVTHQGLSSPVTKSFNRGEC
notes: also called Antibody AbG
B2: Ref3 (antibody, human IgG1, kappa)
heavy: B1 heavy with A27F, F101Y, L235F, L236E, P332S
light: B1 light with Y36F
B3: Ref1 (antibody, human IgG1, kappa)
heavy: B1 heavy with A27F, F101Y
light: B1 light with Y36F
notes: hIgG1-YTE
B4: AbI (antibody, human IgG1, kappa, V domains shown)
VH: QVTLRESGPALVKPTQTLTLTCTVSGASLSRYSVNWIRQPPGKALEWLAMIWGDGKIVYNSALKSRLTISKDTSKNQVVLTMTNMDPVDTATYYCAGDGFYPYAMDNWGQGSLVTVSS
VL: DIVMTQSPDSLSVSLGERATINCRASKSVDSYGNSYMHWYQQKPGQPPKLLIYLASNLESGVPDRFSGSGSGTDFTLTISSLQAEDVAVYYCQQNNEDPRTFGGGTKVEIKR
B5: AbM (antibody, human IgG1, kappa, V domains shown)
VH: B4 VH with R31A, F100Y, Y101F
VL: B4 VL with S31Y, N34R
B6: AbP (antibody, human IgG1, kappa, V domains shown)
VH: B4 VH with R31A, I57V, F100Y, Y101F, N107H
VL: B4 VL with L54W
B7: AbD (antibody, human IgG1, kappa, V domains shown)
VH: B4 VH with A27S, R31A, I57V, F100Y, Y101F
VL: B4 VL
B8: AbN (antibody, human IgG1, kappa, V domains shown)
VH: B4 VH with R31A, F100Y
VL: B4 VL with K27E, S31Y, N34H
B9: AbE (antibody, human IgG1, kappa, V domains shown)
VH: B4 VH with R31A, F100Y, Y101F
VL: B4 VL with N34H, L54W
B10: AbO (antibody, human IgG1, kappa, V domains shown)
VH: B4 VH with A27Y, R31A, F100Y, Y101F, N107V
VL: B4 VL with S31Y, N34H
B11: AbH (antibody, human IgG1, kappa, V domains shown)
VH: B4 VH with F100Y
VL: B4 VL with L54R
B12: AbF (antibody, human IgG1, kappa, V domains shown)
VH: B4 VH with G55A, F100Y, Y101F
VL: B4 VL with K27E
B13: AbL (antibody, human IgG1, kappa, V domains shown)
VH: B4 VH with A27F, F100Y
VL: B4 VL with N34R
B14: AbK (antibody, human IgG1, kappa, V domains shown)
VH: B4 VH with A27S, F100Y
VL: B4 VL with K27Q
B15: AbJ (antibody, human IgG1, kappa, V domains shown)
VH: B4 VH with R31A, G55R, I57K, F100Y, Y101F, N107L
VL: B4 VL with N34H, L54W
B16: AbC (antibody, human IgG1, kappa, V domains shown)
VH: B4 VH with A27F, R31A, F100Y, N107Y
VL: B4 VL with S31Y
B17: AbA (antibody, human IgG1, kappa, V domains shown)
VH: B4 VH with A27F, R31A, F100Y
VL: B4 VL with N34R
B18: AbB (antibody, human IgG1, kappa, V domains shown)
VH: B4 VH with R31A, F100Y
VL: B4 VL with S31Y, N34H
B19: NB-11 (antibody, human IgG4 S228P, kappa, V domains shown)
VH: B4 VH with R31A, K56T, F100Y, Y101F
VL: B4 VL with N34H, Y36F
B20: NB-12 (antibody, human IgG4 S228P, kappa, V domains shown)
VH: B4 VH with R31A, F100Y, Y103W
VL: B4 VL with K27Q, Y36F

What follows are binders tested against T1, mouse IL-13 (assay: SPR (Biacore 8K+), antibody captured on anti-human IgG Fc chip, IL-13 as analyte, 25 C).

| Binder | binding result |
| --- | --- |
| B1 | no binding |
| B2 | no binding |

Each binder was assayed against T2, human IL-13 (human, UniProt P35225 25-146, limits assumed) (assay: SPR (Biacore 8K+), antibody captured on anti-human Fc CM4 chip, human IL-13 0.6-10 nM as analyte, 37 C, 1:1 fit).
T2 construct: The KinExA antigen was detected with an anti-HIS IgG, so it probably carried a HIS tag; also called Interleukin-13; hIL-13
T2 sequence (P35225 other isoform, or with tags, fused parts or gaps limits assumed): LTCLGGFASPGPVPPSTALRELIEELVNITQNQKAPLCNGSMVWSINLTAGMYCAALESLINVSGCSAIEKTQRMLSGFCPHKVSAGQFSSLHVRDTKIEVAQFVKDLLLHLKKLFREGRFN

| Binder | Kd | koff | kon |
| --- | --- | --- | --- |
| B1 | 0.0126 nM | 7.68e-06 s⁻¹ | 639000 M⁻¹ s⁻¹ |
| B3 | 0.0551 nM | 2.66e-05 s⁻¹ | 483000 M⁻¹ s⁻¹ |
| B2 | 0.0507 nM | 2.52e-05 s⁻¹ | 501000 M⁻¹ s⁻¹ |

The binders below were run against T2, human IL-13 (assay: SPR (Biacore 8K+), antibody captured, human IL-13 as analyte, 37 C; less than 5% decay in 5,400 s, KD estimated).

| Binder | Kd |
| --- | --- |
| B1 | < 0.015 nM |
| B4 | < 0.015 nM |
| B5 | < 0.015 nM |
| B6 | < 0.015 nM |
| B7 | < 0.015 nM |
| B8 | < 0.015 nM |
| B9 | < 0.015 nM |
| B10 | < 0.015 nM |
| B11 | < 0.015 nM |
| B12 | < 0.015 nM |
| B13 | < 0.015 nM |
| B14 | < 0.015 nM |
| B15 | < 0.015 nM |

Each binder was assayed against T2, human IL-13 (assay: cell-based or functional assay).

| Binder | Mean IC50 (nM) Donor 1, Phospho-STAT6 assay in human CD14+ monocytes | Mean IC50 (nM) Donor 2, Phospho-STAT6 assay in human CD14+ monocytes | Mean IC50 (nM) Donor 3, Phospho-STAT6 assay in human CD14+ monocytes |
| --- | --- | --- | --- |
| B2 | 32.2 nM | 31.3 nM | 33.9 nM |

What follows are binders tested against T2, human IL-13 (assay: KinExA, 25 C).

| Binder | fold higher affinity than Ref2 |
| --- | --- |
| B1 | 40 fold |

Biological target: T2, human IL-13
Experiment: cell-based or functional assay
Remark: another data set of the same source

| Binder | IC50, HEK-Blue IL-13Ra1/IL-4Ra STAT6-SEAP reporter assay |
| --- | --- |
| B1 | 0.174 µg/mL |
| B4 | 0.223 µg/mL |
| B16 | 0.118 µg/mL |
| B5 | 0.136 µg/mL |
| B6 | 0.152 µg/mL |
| B7 | 0.161 µg/mL |
| B17 | 0.123 µg/mL |
| B18 | 0.132 µg/mL |
| B8 | 0.14 µg/mL |
| B9 | 0.118 µg/mL |
| B10 | 0.165 µg/mL |
| B3 | 0.143 µg/mL |
| B11 | 0.107 µg/mL |
| B12 | 0.126 µg/mL |
| B13 | 0.32 µg/mL |
| B14 | 0.172 µg/mL |
| B15 | 0.167 µg/mL |

These binders were tested against T2, human IL-13 (assay: KinExA, solution equilibrium, free antigen captured on Ref1-coated beads, 25 C).

| Binder | Kd | koff | kon |
| --- | --- | --- | --- |
| B1 | 0.00023 nM | 4.8e-07 s⁻¹ | 2.06e+06 M⁻¹ s⁻¹ |
| B3 | 0.00613 nM | 9.37e-06 s⁻¹ | 1.53e+06 M⁻¹ s⁻¹ |

The binders below were run against cynomolgus IL-13 (cynomolgus, UniProt Q0PW92 21-132) in the same assay as above.
cynomolgus IL-13, sequence (Q0PW92 entry or part of it): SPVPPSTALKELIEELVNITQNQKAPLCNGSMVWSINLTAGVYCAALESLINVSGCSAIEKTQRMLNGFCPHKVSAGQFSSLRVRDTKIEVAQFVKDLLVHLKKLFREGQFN

| Binder | Kd | koff | kon |
| --- | --- | --- | --- |
| B1 | 0.00072 nM | 1.77e-06 s⁻¹ | 2.46e+06 M⁻¹ s⁻¹ |
| B3 | 0.00052 nM | 1.09e-06 s⁻¹ | 2.09e+06 M⁻¹ s⁻¹ |

These binders were tested against T2, human IL-13 (assay: SPR (Biacore 8K+), antibody captured on anti-human pAb CM4 chip, human IL-13 0.6-10 nM as analyte, 37 C, 1:1 fit).

| Binder | Kd | koff | kon |
| --- | --- | --- | --- |
| B16 | 0.0273 nM | 2.98e-05 s⁻¹ | 1.09e+06 M⁻¹ s⁻¹ |
| B17 | 0.0162 nM | 1.11e-05 s⁻¹ | 847000 M⁻¹ s⁻¹ |
| B18 | 0.0215 nM | 1.02e-05 s⁻¹ | 552000 M⁻¹ s⁻¹ |
| B3 | 0.0484 nM | 2.64e-05 s⁻¹ | 594000 M⁻¹ s⁻¹ |

These binders were tested against T2, human IL-13 (assay: SPR array (Carterra LSA), antibody captured on anti-human pAb HC30M chip, human IL-13 0.05-100 nM as analyte, 25 C, 1:1 fit).

| Binder | Kd | koff | kon |
| --- | --- | --- | --- |
| B19 | 0.97 nM | 0.000135 s⁻¹ | 139000 M⁻¹ s⁻¹ |
| B20 | 6.09 nM | 0.000711 s⁻¹ | 117000 M⁻¹ s⁻¹ |
| B1 | < 0.1 nM |  |  |
| B3 | < 0.1 nM |  |  |
